Source: the supplement of paper PMC5998384

Assays:
HeLa Kyoto [1] = assay: melting temperature (median over replicates), in situ; higher = more thermally stable
HeLa Kyoto [2] = assay: solubility in G1/S (NP-40 vs SDS abundance) (log2 ratio); higher = more soluble; conditions: cell cycle stage: G1/S
HeLa Kyoto [3] = assay: solubility change mitosis vs G1/S (difference of NP-40 vs SDS log2 ratios) (log2 ratio difference); higher = more soluble in mitosis
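For melting temperature (median over replicates), in situ in this document: HeLa Kyoto cells synchronized by double thymidine or nocodazole block, proteins quantified by TMT10plex mass spectrometry, three independent biological replicates.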
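For solubility change mitosis vs G1/S (difference of NP-40 vs SDS log2 ratios) in this document: synchronized HeLa Kyoto cells (double thymidine block for G1/S, nocodazole release for mitosis), protein amounts in NP-40 versus SDS lysates quantified by mass spectrometry, three biological replicates.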
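For solubility in G1/S (NP-40 vs SDS abundance) in this document: HeLa Kyoto cells arrested at G1/S by double thymidine block, proteins quantified by TMT10plex mass spectrometry in mild NP-40 versus SDS extracts, three biological replicates.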

Sequence	melting temperature (HeLa Kyoto [1]; cell cycle stage: mitosis) [°C]	solubility in G1/S (log2) (HeLa Kyoto [2])	solubility change mitosis (log2) (HeLa Kyoto [3])	melting temperature (HeLa Kyoto [1]; cell cycle stage: G1/S) [°C]
MAAQGAAAAVAAGTSGVAGEGEPGPGENAAAEGTAPSPGRVSPPTPARGEPEVTVEIGETYLCRRPDSTWHSAEVIQSRVNDQEGREEFYVHYVGFNRRLDEWVDKNRLALTKTVKDAVQKNSEKYLSELAEQPERKITRNQKRKHDEINHVQKTYAEMDPTTAALEKEHEAITKVKYVDKIHIGNYEIDAWYFSPFPEDYGKQPKLWLCEYCLKYMKYEKSYRFHLGQCQWRQPPGKEIYRKSNISVYEVDGKDHKIYCQNLCLLAKLFLDHKTLYFDVEPFVFYILTEVDRQGAHIVGYFSKEKESPDGNNVACILTLPPYQRRGYGKFLIAFSYELSKLESTVGSPEKPLSDLGKLSYRSYWSWVLLEILRDFRGTLSIKDLSQMTSITQNDIISTLQSLNMVKYWKGQHVICVTPKLVEEHLKSAQYKKPPITVDSVCLKWAPPKHKQVKLSKK [KAT8]	49.9	-0.134	-0.249	–
MRMSDTVTVKDETATMKDLEAEVKDTTRVENLIKSENYGKILVEKNEHCIENNIDLQRPLQSFGQTGKRSKSSSKLKLVRSLAVCEESPPPPAPEISQENQEKIQIQLTQSFEKEEKPSKDEAEKEKASDKLPRKMLSRDSSQEYTDSTGIDLHEFLVNTLKNNPRDRMMLLKLEQEILDFIGNNESPRKKFPPMTSYHRMLLHRVAAYFGLDHNVDQSGKSVIVNKTSNTRIPDQKFNEHIKDDKGEDFQKRYILKRDNSSFDKDDNQMRIRLKDDRRSKSIEEREEEYQRARDRIFSQDSLCSQENYIIDKRLQDEDASSTQQRRQIFRVNKDASGRSTNSHQSSTENELKYSEPRPWSSTDSDSSLRNLKPAVTKASSFSGISVLTRGDSSGSSKSIGRLSKTGSESSGSVGSSTGSLSHIQQPLPGTALSQSSHGAPVVYPTVSTHSSLSFDGGLNGQVASPSTSFFLLPLEAAGIPPGSILINPQTGQPFINPDGSPVVYNPPMTQQPVRSQVPGPPQPPLPAPPQQPAANHIFSQDNLGSQFSHMSLARQPSADGSDPHAAMFQSTVVLQSPQQSGYIMTAAPPPHPPPPPPPPPPPPPLPPGQPVPTAGYPASGHPVSQPVLQQQGYIQQPSPQMPACYCAPGHYHSSQPQYRPVPSVHYNSHLNQPLPQPAQQTGYQVIPNQQQNYQGIVGVQQPQSQSLVSGQPNSIGNQIQGVVIPYTSVPTYQVSLPQGSQGIPHQTYQQPVMFPNQSNQGSMPTTGMPVYYSVIPPGQQNNLSSSVGYLQHPGSEQVQFPRTTSPCSSQQLQGHQCTAGPPPPPGGGMVMMQLSVPNNPQSCAHSPPQWKQNKYYCDHQRGQKCVEFSSVDNIVQHSPQLSSPIISPAQSPAPAQLSTLKTVRPSGPPLSIMPQFSRPFVPGQGDSRYPLLGQPLQYNPPAVLHGHIPNQQGQPGSRHGNRGRRQAKKAASTDLGAGETVVGKVLEITELPDGITRMEAEKLFGELFKIGAKIRWLRDPQSQPRRHPLCCGSGDNTANPERSKPSDLASTYTVLATFPSISAAQNALKKQINSVNKFKLRTSKKHYDFHILERASSQ [R3HDM1]	50.9	0.189	-0.239	52.3
MRLAGPLRIVVLVVSVGVTWIVVSILLGGPGSGFPRIQQLFTSPESSVTAAPRARKYKCGLPQPCPEEHLAFRVVSGAANVIGPKICLEDKMLMSSVKDNVGRGLNIALVNGVSGELIEARAFDMWAGDVNDLLKFIRPLHEGTLVFVASYDDPATKMNEETRKLFSELGSRNAKELAFRDSWVFVGAKGVQNKSPFEQHVKNSKHSNKYEGWPEALEMEGCIPRRSTAS [FAM3A]	52.8	-0.0403	-0.0146	51.9
MSTASSSSSSSSSQTPHPPSQRMRRSAAGSPPAVAAAGSGNGAGGGGGVGCAPAAGAGRLLQPIRATVPYQLLRGSQHSPTRPPVAAAAASLGSLPGPGAARGPSPSSPTPPAAAAPAEQAPRAKGRPRRSPESHRRSSSPERRSPGSPVCRADKAKSQQVRTSSTIRRTSSLDTITGPYLTGQWPRDPHVHYPSCMKDKATQTPSCWAEEGAEKRSHQRSASWGSADQLKEQIAKLRQQLQRSKQSSRHSKEKDRQSPLHGNHITISHTQATGSRSVPMPLSNISVPKSSVSRVPCNVEGISPELEKVFIKENNGKEEVSKPLDIPDGRRAPLPAHYRSSSTRSIDTQTPSVQERSSSCSSHSPCVSPFCPPESQDGSPCSTEDLLYDRDKDSGSSSPLPKYASSPKPNNSYMFKREPPEGCERVKVFEEMASRQPISAPLFSCPDKNKVNFIPTGSAFCPVKLLGPLLPASDLMLKNSPNSGQSSALATLTVEQLSSRVSFTSLSDDTSTAGSMEASVQQPSQQQQLLQELQGEDHISAQNYVII [GLCCI1]	54.4	0.4	-0.0403	53.7
MGDEKDSWKVKTLDEILQEKKRRKEQEEKAEIKRLKNSDDRDSKRDSLEEGELRDHRMEITIRNSPYRREDSMEDRGEEDDSLAIKPPQQMSRKEKAHHRKDEKRKEKRRHRSHSAEGGKHARVKEKEREHERRKRHREEQDKARREWERQKRREMAREHSRRERDRLEQLERKRERERKMREQQKEQREQKERERRAEERRKEREARREVSAHHRTMREDYSDKVKASHWSRSPPRPPRERFELGDGRKPGEARPAPAQKPAQLKEEKMEERDLLSDLQDISDSERKTSSAESSSAESGSGSEEEEEEEEEEEEEGSTSEESEEEEEEEEEEEEETGSNSEEASEQSAEEVSEEEMSEDEERENENHLLVVPESRFDRDSGESEEAEEEVGEGTPQSSALTEGDYVPDSPALSPIELKQELPKYLPALQGCRSVEEFQCLNRIEEGTYGVVYRAKDKKTDEIVALKRLKMEKEKEGFPITSLREINTILKAQHPNIVTVREIVVGSNMDKIYIVMNYVEHDLKSLMETMKQPFLPGEVKTLMIQLLRGVKHLHDNWILHRDLKTSNLLLSHAGILKVGDFGLAREYGSPLKAYTPVVVTLWYRAPELLLGAKEYSTAVDMWSVGCIFGELLTQKPLFPGKSEIDQINKVFKDLGTPSEKIWPGYSELPAVKKMTFSEHPYNNLRKRFGALLSDQGFDLMNKFLTYFPGRRISAEDGLKHEYFRETPLPIDPSMFPTWPAKSEQQRVKRGTSPRPPEGGLGYSQLGDDDLKETGFHLTTTNQGASAAGPGFSLKF [CDC2L1]	50.3	-0.672	0.114	46.5
MELHILEHRLQVASVAKESIPLFTYGLIKLAFLSSKTRCKFFSLTETPEDYTIIVDEEGFLELPSSEHLSVADATWLALNVVSGGGSFSSSQPIGVTKIAKSVIAPLADQNISVFMLSTYQTDFILVRERDLPFVTHTLSSEFTILRVVNGETVAAENLGITNGFVKPKLVQRPVIHPLSSPSNRFCVTSLDPDTLPAVATLLMDVMFYSNGVKDPMATGDDCGHIRFFSFSLIEGYISLVMDVQTQQRFPSNLLFTSASGELWKMVRIGGQPLGFDECGIVAQISEPLAAADIPAYYISTFKFDHALVPEENINGVISALKVSQAEKH [GATSL2]	57.8	0.084	-0.149	56.4
MASQGRRRRPLRRPETVVPGEATETDSERSASSSEEEELYLGPSGPTRGRPTGLRVAGEAAETDSEPEPEPEPTAAPRDLPPLVVQRESAEEAWGTEEAPAPAPARSLLQLRLAESQARLDHDVAAAVSGVYRRAGRDVAALASRLAAAQAAGLAAAHSVRLARGDLCALAERLDIVAGCRLLPDIRGVPGTEPEKDPGPRA [BLOC1S3]	54.9	0.568	0.0331	52.6
MAASRYRRFLKLCEEWPVDETKRGRDLGAYLRQRVAQAFREGENTQVAEPEACDQMYESLARLHSNYYKHKYPRPRDTSFSGLSLEEYKLILSTDTLEELKEIDKGMWKKLQEKFAPKGPEEDHKA [UQCC2]	–	0.0537	0.507	45.6
MLGLCGQRLPAAWVLLLLPFLPLLLLAAPAPHRASYKPVIVVHGLFDSSYSFRHLLEYINETHPGTVVTVLDLFDGRESLRPLWEQVQGFREAVVPIMAKAPQGVHLICYSQGGLVCRALLSVMDDHNVDSFISLSSPQMGQYGDTDYLKWLFPTSMRSNLYRICYSPWGQEFSICNYWHDPHHDDLYLNASSFLALINGERDHPNATVWRKNFLRVGHLVLIGGPDDGVITPWQSSFFGFYDANETVLEMEEQLVYLRDSFGLKTLLARGAIVRCPMAGISHTAWHSNRTLYETCIEPWLS [PPT2]	55.9	0.733	-0.131	56.4
MPKTMHFLFRFIVFFYLWGLFTAQRQKKEESTEEVKIEVLHRPENCSKTSKKGDLLNAHYDGYLAKDGSKFYCSRTQNEGHPKWFVLGVGQVIKGLDIAMTDMCPGEKRKVVIPPSFAYGKEGYAEGKIPPDATLIFEIELYAVTKGPRSIETFKQIDMDNDRQLSKAEINLYLQREFEKDEKPRDKSYQDAVLEDIFKKNDHDGDGFISPKEYNVYQHDEL [FKBP7]	55.8	0.654	0.0889	55
MWPPCGTLRTLALARSRGARACSGDGGVSYTQGQSPEPRTREYFYYVDHQGQLFLDDSKMKNFITCFKDPQFLVTFFSRLRPNRSGRYEAAFPFLSPCGRERNFLRCEDRPVVFTHLLTADHGPPRLSYCGGGEALAVPFEPARLLPLAANGRLYHPAPERAGGVGLVRSALAFELSACFEYGPGAPALPSHVRWQGRRLALTMDLAPLLLAARSP [C8ORF82]	54.3	0.265	0.0375	52.4
MAMSFEWPWQYRFPPFFTLQPNVDTRQKQLAAWCSLVLSFCRLHKQSSMTVMEAQESPLFNNVKLQRKLPVESIQIVLEELRKKGNLEWLDKSKSSFLIMWRRPEEWGKLIYQWVSRSGQNNSVFTLYELTNGEDTEDEEFHGLDEATLLRALQALQQEHKAEIITVSDGRGVKFF [VPS25]	51.3	-0.0882	-0.086	51.2
MEQAPNMAEPRGPVDHGVQIRFITEPVSGAEMGTLRRGGRRPAKDARASTYGVAVRVQGIAGQPFVVLNSGEKGGDSFGVQIKGANDQGASGALSSDLELPENPYSQVKGFPAPSQSSTSDEEPGAYWNGKLLRSHSQASLAGPGPVDPSNRSNSMLELAPKVASPGSTIDTAPLSSVDSLINKFDSQLGGQARGRTGRRTRMLPPEQRKRSKSLDSRLPRDTFEERERQSTNHWTSSTKYDNHVGTSKQPAQSQNLSPLSGFSRSRQTQDWVLQSFEEPRRSAQDPTMLQFKSTPDLLRDQQEAAPPGSVDHMKATIYGILREGSSESETSVRRKVSLVLEKMQPLVMVSSGSTKAVAGQGELTRKVEELQRKLDEEVKKRQKLEPSQVGLERQLEEKTEECSRLQELLERRKGEAQQSNKELQNMKRLLDQGEDLRHGLETQVMELQNKLKHVQGPEPAKEVLLKDLLETRELLEEVLEGKQRVEEQLRLRERELTALKGALKEEVASRDQEVEHVRQQYQRDTEQLRRSMQDATQDHAVLEAERQKMSALVRGLQRELEETSEETGHWQSMFQKNKEDLRATKQELLQLRMEKEEMEEELGEKIEVLQRELEQARASAGDTRQVEVLKKELLRTQEELKELQAERQSQEVAGRHRDRELEKQLAVLRVEADRGRELEEQNLQLQKTLQQLRQDCEEASKAKMVAEAEATVLGQRRAAVETTLRETQEENDEFRRRILGLEQQLKETRGLVDGGEAVEARLRDKLQRLEAEKQQLEEALNASQEEEGSLAAAKRALEARLEEAQRGLARLGQEQQTLNRALEEEGKQREVLRRGKAELEEQKRLLDRTVDRLNKELEKIGEDSKQALQQLQAQLEDYKEKARREVADAQRQAKDWASEAEKTSGGLSRLQDEIQRLRQALQASQAERDTARLDKELLAQRLQGLEQEAENKKRSQDDRARQLKGLEEKVSRLETELDEEKNTVELLTDRVNRGRDQVDQLRTELMQERSARQDLECDKISLERQNKDLKTRLASSEGFQKPSASLSQLESQNQLLQERLQAEEREKTVLQSTNRKLERKVKELSIQIEDERQHVNDQKDQLSLRVKALKRQVDEAEEEIERLDGLRKKAQREVEEQHEVNEQLQARIKSLEKDSWRKASRSAAESALKNEGLSSDEEFDSVYDPSSIASLLTESNLQTSSC [CGN]	53.6	-0.601	0.648	53.6
